Laboratory results from the supplement of paper PMC10065799, “High-throughput profiling of sequence recognition by tyrosine kinases and SH2 domains using bacterial peptide display” (eLife, 2023).

target: Jak2 (UniProt O60674); test: phosphorylation enrichment, bacterial display (enrichment ratio); higher = better substrate or ligand; peptides without Tyr show the background
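Note: 11-residue human phosphosite peptides and single-mutation variants displayed on the E. coli surface, counted by deep sequencing, each peptide's frequency after selection divided by its frequency in the unselected input library; frequency after pTyr selection over input frequency; kinase dosed for 20-30% of maximal phosphorylation in three min.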

Chain of Jak2 (O60674 whole entry, looked up): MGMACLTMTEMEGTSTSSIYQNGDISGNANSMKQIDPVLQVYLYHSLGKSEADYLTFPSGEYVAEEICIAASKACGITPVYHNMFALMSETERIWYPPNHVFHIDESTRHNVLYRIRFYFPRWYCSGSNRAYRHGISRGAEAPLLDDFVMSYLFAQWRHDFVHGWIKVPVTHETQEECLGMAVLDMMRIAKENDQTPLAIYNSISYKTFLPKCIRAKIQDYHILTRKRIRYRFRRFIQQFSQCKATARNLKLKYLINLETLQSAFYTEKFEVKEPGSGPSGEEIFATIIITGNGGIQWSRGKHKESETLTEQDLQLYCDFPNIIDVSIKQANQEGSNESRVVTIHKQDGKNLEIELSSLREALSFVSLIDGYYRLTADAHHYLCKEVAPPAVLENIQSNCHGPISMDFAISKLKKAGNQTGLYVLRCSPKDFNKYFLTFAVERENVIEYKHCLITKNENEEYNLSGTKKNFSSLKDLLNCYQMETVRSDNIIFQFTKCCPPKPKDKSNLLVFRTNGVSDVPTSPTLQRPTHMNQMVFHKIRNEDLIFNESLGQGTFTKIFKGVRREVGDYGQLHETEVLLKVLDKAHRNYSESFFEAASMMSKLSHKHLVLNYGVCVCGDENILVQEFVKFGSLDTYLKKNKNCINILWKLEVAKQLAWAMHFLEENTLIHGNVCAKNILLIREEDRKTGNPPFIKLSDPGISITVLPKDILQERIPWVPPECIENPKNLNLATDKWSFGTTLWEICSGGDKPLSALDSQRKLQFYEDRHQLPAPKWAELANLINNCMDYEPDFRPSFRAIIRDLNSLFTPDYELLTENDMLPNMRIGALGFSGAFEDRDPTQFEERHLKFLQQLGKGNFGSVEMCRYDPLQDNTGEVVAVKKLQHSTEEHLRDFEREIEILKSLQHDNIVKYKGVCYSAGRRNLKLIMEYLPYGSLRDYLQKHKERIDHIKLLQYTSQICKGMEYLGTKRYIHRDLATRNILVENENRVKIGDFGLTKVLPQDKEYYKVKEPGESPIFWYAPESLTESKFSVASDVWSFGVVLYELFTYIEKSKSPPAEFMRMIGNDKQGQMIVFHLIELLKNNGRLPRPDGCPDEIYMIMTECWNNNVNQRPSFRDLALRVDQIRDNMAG

| Sequence | phosphorylation enrichment |
| --- | --- |
| YTTIHYNYMCN [TP53_Y234_C229Y] | 1.26 |
| YTDPYYDYEIE [ZC3H18_Y372_A368T] | 1.31 |
| HAKKNYGNSSV [HDX_Y197] | 0.396 |
| KTTILHKLKLG [ARF1_Y35_Y35H] | 0.548 |
| KFVVVYFRETD [IL17RB_Y447_I451T_YF] | 1.11 |
| VHYLVYHHHHH [CACNA1H_Y519_H516Y] | 1.49 |
| RSSPVYVGRVV [TGM2_Y219] | 1.03 |
| ADARMYGVHPW [PLP1_Y207_L210H] | 0.521 |
| HSQEDYFECFQ [ZIM2_Y411] | 1.25 |
| WCKPLYFSCAV [MMS22L_Y28_P27L] | 1.57 |
| EWQQTYTFDSG [JUP_Y20_YF] | 1.02 |
| SQQTYCRVSNM [ABCD1_Y181_Y181C] | 0.623 |
| CTHDLYMIMRE [FGFR3_Y724] | 1.44 |
| SVTCTYSPALY [TP53_Y126_N131Y] | 1.33 |
| STKELYEKFMI | 0.619 |
| GRPMDYHVSIT [OTOF_Y254_Q255H] | 0.83 |
| MAPQMYEFHLP [NCAPD2_Y6] | 0.592 |

| Sequence | phosphorylation enrichment |
| --- | --- |
| PMFHSYVSLPF [PLXNA2_Y293_K289M] | 2.01 |
| TNYCLYLRSLE [MTM1_Y71_R69C] | 1.29 |
| SLDLSYFHTSS [EMD_Y181_P183H_YF] | 1.06 |
| IGEGTYGVLYK [CDK2_Y15_V18L] | 0.635 |
| ARGMEYLASQK [FGFR2_Y616] | 0.563 |
| MEIHAYRKLSE [LMNA_Y376_L380S] | 0.678 |
| FGHTFYNQAIM [MCCC2_Y196_R193H] | 0.856 |
| LLIMEYAKFGS [RET_Y806_V804M_YF] | 2.11 |
| ECKEAYHEGEC [PRKN_Y372] | 1.18 |
| TSQSQYSSFRE [CCDC170_Y323_F324S] | 0.687 |
| TLPAFYMGNFS [GLB1_Y552] | 1.03 |
| TLKDVCDDGKF [RPS6KA3_Y483_Y483C_YF] | 0.873 |
| RRNVYYYSYLL [PTEN_Y177_Y174N] | 2.42 |
| KDYETYQSFQN [CTNND2_Y1157_P1159S] | 1.03 |
| AKLVQYYMEHH [PTPN11_Y80_E76K] | 0.799 |
| STAPSYGNPSS [CD19_Y378_G373S] | 0.503 |

system: c-Src; test: as above

| Sequence | phosphorylation enrichment |
| --- | --- |
| YTTIHYNYMCN [TP53_Y234_C229Y] | 1.27 |
| YTDPYYDYEIE [ZC3H18_Y372_A368T] | 2.94 |
| HAKKNYGNSSV [HDX_Y197] | 0.355 |
| KTTILHKLKLG [ARF1_Y35_Y35H] | 0.326 |
| KFVVVYFRETD [IL17RB_Y447_I451T_YF] | 0.377 |
| VHYLVYHHHHH [CACNA1H_Y519_H516Y] | 0.587 |
| RSSPVYVGRVV [TGM2_Y219] | 1.42 |
| ADARMYGVHPW [PLP1_Y207_L210H] | 3.64 |
| HSQEDYFECFQ [ZIM2_Y411] | 0.79 |
| WCKPLYFSCAV [MMS22L_Y28_P27L] | 1.18 |
| EWQQTYTFDSG [JUP_Y20_YF] | 5.44 |
| SQQTYCRVSNM [ABCD1_Y181_Y181C] | 0.718 |
| CTHDLYMIMRE [FGFR3_Y724] | 2.22 |
| SVTCTYSPALY [TP53_Y126_N131Y] | 1.21 |
| STKELYEKFMI | 1.01 |
| GRPMDYHVSIT [OTOF_Y254_Q255H] | 0.4 |
| MAPQMYEFHLP [NCAPD2_Y6] | 0.655 |

| Sequence | phosphorylation enrichment |
| --- | --- |
| PMFHSYVSLPF [PLXNA2_Y293_K289M] | 0.751 |
| TNYCLYLRSLE [MTM1_Y71_R69C] | 0.887 |
| SLDLSYFHTSS [EMD_Y181_P183H_YF] | 0.466 |
| IGEGTYGVLYK [CDK2_Y15_V18L] | 5.6 |
| ARGMEYLASQK [FGFR2_Y616] | 0.398 |
| MEIHAYRKLSE [LMNA_Y376_L380S] | 0.384 |
| FGHTFYNQAIM [MCCC2_Y196_R193H] | 0.455 |
| LLIMEYAKFGS [RET_Y806_V804M_YF] | 1.96 |
| ECKEAYHEGEC [PRKN_Y372] | 0.541 |
| TSQSQYSSFRE [CCDC170_Y323_F324S] | 1.88 |
| TLPAFYMGNFS [GLB1_Y552] | 0.523 |
| TLKDVCDDGKF [RPS6KA3_Y483_Y483C_YF] | 0.433 |
| RRNVYYYSYLL [PTEN_Y177_Y174N] | 1.79 |
| KDYETYQSFQN [CTNND2_Y1157_P1159S] | 4.92 |
| AKLVQYYMEHH [PTPN11_Y80_E76K] | 0.615 |
| STAPSYGNPSS [CD19_Y378_G373S] | 0.381 |

target: Hck (UniProt P08631); test: as above
Sequence (P08631 whole entry, looked up): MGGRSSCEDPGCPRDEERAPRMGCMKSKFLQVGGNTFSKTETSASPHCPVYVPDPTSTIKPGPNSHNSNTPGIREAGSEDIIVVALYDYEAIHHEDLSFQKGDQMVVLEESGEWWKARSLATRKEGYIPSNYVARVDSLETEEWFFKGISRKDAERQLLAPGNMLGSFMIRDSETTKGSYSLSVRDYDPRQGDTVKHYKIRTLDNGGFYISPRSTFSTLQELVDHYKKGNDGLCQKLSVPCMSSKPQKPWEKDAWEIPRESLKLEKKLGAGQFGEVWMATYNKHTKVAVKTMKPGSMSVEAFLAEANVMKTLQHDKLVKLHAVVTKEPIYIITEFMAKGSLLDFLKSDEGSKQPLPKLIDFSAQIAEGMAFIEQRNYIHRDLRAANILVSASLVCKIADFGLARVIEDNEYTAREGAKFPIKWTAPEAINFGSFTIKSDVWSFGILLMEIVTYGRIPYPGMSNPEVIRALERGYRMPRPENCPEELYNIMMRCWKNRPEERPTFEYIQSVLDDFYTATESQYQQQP

| Sequence | phosphorylation enrichment |
| --- | --- |
| YTTIHYNYMCN [TP53_Y234_C229Y] | 0.917 |
| YTDPYYDYEIE [ZC3H18_Y372_A368T] | 0.967 |
| HAKKNYGNSSV [HDX_Y197] | 0.387 |
| KTTILHKLKLG [ARF1_Y35_Y35H] | 0.39 |
| KFVVVYFRETD [IL17RB_Y447_I451T_YF] | 0.57 |
| VHYLVYHHHHH [CACNA1H_Y519_H516Y] | 0.632 |
| RSSPVYVGRVV [TGM2_Y219] | 2.22 |
| ADARMYGVHPW [PLP1_Y207_L210H] | 2.42 |
| HSQEDYFECFQ [ZIM2_Y411] | 0.623 |
| WCKPLYFSCAV [MMS22L_Y28_P27L] | 0.607 |
| EWQQTYTFDSG [JUP_Y20_YF] | 0.78 |
| SQQTYCRVSNM [ABCD1_Y181_Y181C] | 1.41 |
| CTHDLYMIMRE [FGFR3_Y724] | 0.971 |
| SVTCTYSPALY [TP53_Y126_N131Y] | 0.932 |
| STKELYEKFMI | 1.01 |
| GRPMDYHVSIT [OTOF_Y254_Q255H] | 0.479 |
| MAPQMYEFHLP [NCAPD2_Y6] | 0.624 |

| Sequence | phosphorylation enrichment |
| --- | --- |
| PMFHSYVSLPF [PLXNA2_Y293_K289M] | 3.34 |
| TNYCLYLRSLE [MTM1_Y71_R69C] | 0.668 |
| SLDLSYFHTSS [EMD_Y181_P183H_YF] | 0.559 |
| IGEGTYGVLYK [CDK2_Y15_V18L] | 7.04 |
| ARGMEYLASQK [FGFR2_Y616] | 0.385 |
| MEIHAYRKLSE [LMNA_Y376_L380S] | 0.466 |
| FGHTFYNQAIM [MCCC2_Y196_R193H] | 0.41 |
| LLIMEYAKFGS [RET_Y806_V804M_YF] | 1.59 |
| ECKEAYHEGEC [PRKN_Y372] | 0.654 |
| TSQSQYSSFRE [CCDC170_Y323_F324S] | 1.14 |
| TLPAFYMGNFS [GLB1_Y552] | 0.565 |
| TLKDVCDDGKF [RPS6KA3_Y483_Y483C_YF] | 0.427 |
| RRNVYYYSYLL [PTEN_Y177_Y174N] | 1.13 |
| KDYETYQSFQN [CTNND2_Y1157_P1159S] | 5.74 |
| AKLVQYYMEHH [PTPN11_Y80_E76K] | 0.637 |
| STAPSYGNPSS [CD19_Y378_G373S] | 0.34 |

system: Fer (mouse); test: as above

| Sequence | phosphorylation enrichment |
| --- | --- |
| YTTIHYNYMCN [TP53_Y234_C229Y] | 2.08 |
| YTDPYYDYEIE [ZC3H18_Y372_A368T] | 1.22 |
| HAKKNYGNSSV [HDX_Y197] | 0.407 |
| KTTILHKLKLG [ARF1_Y35_Y35H] | 0.435 |
| KFVVVYFRETD [IL17RB_Y447_I451T_YF] | 0.484 |
| VHYLVYHHHHH [CACNA1H_Y519_H516Y] | 0.678 |
| RSSPVYVGRVV [TGM2_Y219] | 0.945 |
| ADARMYGVHPW [PLP1_Y207_L210H] | 0.355 |
| HSQEDYFECFQ [ZIM2_Y411] | 0.614 |
| WCKPLYFSCAV [MMS22L_Y28_P27L] | 0.541 |
| EWQQTYTFDSG [JUP_Y20_YF] | 0.425 |
| SQQTYCRVSNM [ABCD1_Y181_Y181C] | 0.526 |
| CTHDLYMIMRE [FGFR3_Y724] | 0.667 |
| SVTCTYSPALY [TP53_Y126_N131Y] | 0.695 |
| STKELYEKFMI | 6.97 |
| GRPMDYHVSIT [OTOF_Y254_Q255H] | 0.559 |
| MAPQMYEFHLP [NCAPD2_Y6] | 19.6 |

| Sequence | phosphorylation enrichment |
| --- | --- |
| PMFHSYVSLPF [PLXNA2_Y293_K289M] | 0.789 |
| TNYCLYLRSLE [MTM1_Y71_R69C] | 0.614 |
| SLDLSYFHTSS [EMD_Y181_P183H_YF] | 0.441 |
| IGEGTYGVLYK [CDK2_Y15_V18L] | 0.808 |
| ARGMEYLASQK [FGFR2_Y616] | 0.37 |
| MEIHAYRKLSE [LMNA_Y376_L380S] | 0.39 |
| FGHTFYNQAIM [MCCC2_Y196_R193H] | 0.461 |
| LLIMEYAKFGS [RET_Y806_V804M_YF] | 0.909 |
| ECKEAYHEGEC [PRKN_Y372] | 0.498 |
| TSQSQYSSFRE [CCDC170_Y323_F324S] | 0.523 |
| TLPAFYMGNFS [GLB1_Y552] | 0.625 |
| TLKDVCDDGKF [RPS6KA3_Y483_Y483C_YF] | 0.523 |
| RRNVYYYSYLL [PTEN_Y177_Y174N] | 0.556 |
| KDYETYQSFQN [CTNND2_Y1157_P1159S] | 0.651 |
| AKLVQYYMEHH [PTPN11_Y80_E76K] | 0.447 |
| STAPSYGNPSS [CD19_Y378_G373S] | 0.32 |
